The assay has as its target Arfrp1-His (UniProt Q13795). Description: liposome flotation; liposomes incubated with Arfrp1-His (1.5 μg) and 100 μM GDP or GTPγS, with or without 1 μg MBP-Vangl2 cytosolic domain, in HKM buffer at room temperature for 45 min, then 2 μg purified AP-1 for 1 hr; sucrose flotation; γ1-adaptin in the top fraction by immunoblot, normalised to lipid.
Chain of UniProt Q13795 (Q13795 whole entry, the tested form may be a part): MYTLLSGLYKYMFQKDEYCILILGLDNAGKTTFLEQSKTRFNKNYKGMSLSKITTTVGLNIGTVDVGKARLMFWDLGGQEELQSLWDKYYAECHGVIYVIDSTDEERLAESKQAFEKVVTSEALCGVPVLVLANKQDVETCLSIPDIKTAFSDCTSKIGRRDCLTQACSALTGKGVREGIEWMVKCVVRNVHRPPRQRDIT

Take “purified AP-1 complex (from UniProt Q2KJ81 1-423)”: the fold change of membrane recruitment of AP-1 with both Vangl2 cytosolic domain and Arfrp1-GTPγS came to 3 fold.

Values taken from PMC3539332.
